{"source": "patent US20220306744A1", "about": "(CRESCENDO BIOLOGICS, published 2022)", "key": {"[1]": {"target": "T1, human PD-1 expressed on cells (CHO TREX human PD1 cell line, full-length human PD-1 sequence) (human, UniProt Q15116 21-288)", "T1 construct": "Also used for human PD-1 on Jurkat reporter cells, on PathHunter cells and on PHA-stimulated human CD4+ T cells; also called CHO human PD1 cells; CHO human PD-1 cells", "T1 sequence (Q15116 21-288)": "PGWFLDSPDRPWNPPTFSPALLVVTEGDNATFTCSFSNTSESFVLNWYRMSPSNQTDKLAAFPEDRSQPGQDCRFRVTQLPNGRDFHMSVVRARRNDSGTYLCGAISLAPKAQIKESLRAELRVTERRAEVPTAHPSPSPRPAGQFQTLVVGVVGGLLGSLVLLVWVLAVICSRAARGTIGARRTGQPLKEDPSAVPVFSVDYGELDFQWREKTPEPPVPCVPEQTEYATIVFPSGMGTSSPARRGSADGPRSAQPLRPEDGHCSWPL", "assay": "epitope competition assay on CHO human PD1 cells (labelled VH not specified) after 7 days in human serum", "experimental": "(§1) Serum stability of VH and multivalent VH constructs was assessed by measurement of their activity following incubation for 0, 1, 4 or 7 days both in mouse (Sigma M5905) and human serum. […] Minimal loss of activity was observed following incubation with serum."}, "[2]": {"target": "T1, human PD-1 expressed on cells (CHO TREX …)", "assay": "epitope competition assay on CHO human PD1 cells (labelled VH not specified) after 4 days in mouse serum", "experimental": "as §1"}, "[3]": {"target": "T2, recombinant human PD-1 Fc chimera (human, UniProt Q15116 25-167)", "T2 construct": "Bought protein (R&D 1086-PD in the HTRF assay); also called human PD-1-hu Fc; huPD-1Fc; not shown: human Fc", "T2 sequence (Q15116 25-167 limits assumed, stated change not applied)": "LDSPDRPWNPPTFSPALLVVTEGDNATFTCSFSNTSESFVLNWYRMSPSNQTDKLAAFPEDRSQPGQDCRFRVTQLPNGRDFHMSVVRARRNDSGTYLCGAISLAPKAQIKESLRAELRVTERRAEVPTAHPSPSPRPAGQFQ", "assay": "SPR Biacore T200, single cycle kinetics, human PD-1-hu Fc amine coupled to CM5, 1:1 model", "experimental": "Binding kinetics of certain humabodies binding to human PD-1-hu Fc were measured by surface plasmon resonance (SPR) technology using Biacore T200 instrument (GE Healthcare). Recombinant human PD-1-hu Fc was immobilized by standard amine coupling to CM5 sensors chip (GE Healthcare) using 0.1 mg/ml solution of antigen in 10 mM sodium acetate at pH 5.5. For the reference flow cell, a blank immobilisation was carried out. Single cycle kinetics assays were used to study the interaction, a five point, three-fold dilution series of each Humabody® VH was made with a top concentration of 30 nM. The binding kinetics were followed by flowing the Humabody® VH over the chip surface in HBS EP+ buffer at a flow rate of 30 μl/min. The contact time for each of the association steps was 180 seconds and the dissociation step was varied between 1200-3600 seconds. The data was fitted to a 1:1 binding model after double reference subtraction using the Biacore T200 Evaluation software."}, "[4]": {"target": "T1, human PD-1 expressed on cells (CHO TREX …)", "assay": "epitope competition assay on CHO human PD1 cells (labelled VH not specified) after 1 day in human serum", "experimental": "as §1"}, "[5]": {"target": "T1, human PD-1 expressed on cells (CHO TREX …)", "assay": "FMAT binding to CHO human PD-1 cells"}, "[6]": {"target": "T1, human PD-1 expressed on cells (CHO TREX …)", "assay": "FMAT: inhibition of PDL-2 (100 pM) binding to CHO human PD-1 cells", "experimental": "Purified VH were serially diluted in FMAT assay buffer and tested for binding to CHO human PD-1 cells as described above and for inhibition of human PD-L1/PD-L2 binding to CHO human PD-1 cells. All reagents and serially diluted VH were prepared in FMAT assay buffer. VH, buffer (total binding controls) or excess competitor (non-specific binding control) were incubated with 400 pM human Fc tagged human PD-L1 or 100 pM PDL-2, 4 nM anti human Fc-Alexa Fluor-488 and 2000 per well CHO human PD-1 DRAQ5 stained cells in a 384 well black clear-bottomed assay plates. Plates were incubated for 2 hours at room temperature then fluorescence measured in the FL2 (502 nm-537 nm) and FL5 (677-800 nm) channels on the Mirrorball plate reader (TTP) following excitation at 488 nm and 640 nm. Data was expressed as a % of the total binding control (i.e. % control) after subtraction of the background signal determined from the non-specific binding control wells. The results are shown in FIG. 5 and in Tables 8 and 9 below."}, "[7]": {"target": "T1, human PD-1 expressed on cells (CHO TREX …)", "assay": "FMAT epitope competition, CHO human PD1 cells; competitor Epitope 2 (2.1-Strep tagged protein)", "experimental": "For the epitope competition assay reagents were prepared in FMAT assay buffer.\nMultivalent molecules 1.92b-4GS-1.39a and 1.92b-4gs-1.62a were tested in the epitope competition assay as described above. 1.92b-4GS-1.39a and 1.92b-4gs-1.62 did cross compete with 1.1-Strap tagged and 2.1-Strap tagged proteins for binding to the cells.\nPlates were incubated for a minimum of 1.5 hours at room temperature then fluorescence measured in the FL2 (502 nm-537 nm) and FL5 (677-800 nm) channels on the Mirrorball plate reader (TTP) following excitation at 488 nm and 640 nm. Data was expressed as a % of the total binding control (i.e. % control) after subtraction of the background signal determined from the non-specific binding control wells."}, "[8]": {"target": "T1, human PD-1 expressed on cells (CHO TREX …)", "assay": "flow cytometry, PHA-stimulated human CD4+ T cells, Donor 1", "experimental": "(§2) Binding of monovalent single domain antibodies and multivalent binding agents to T cells was measured using flow cytometry. Peripheral blood mononuclear cells (PBMCs) were isolated from human blood by density gradient centrifugation then CD4+ T cells purified using a negative selection isolation kit according to the manufacturer's protocol (Miltenyi Biotech cat no 130-096-533). T-cells were stimulated with 2.5 μg/ml PHA for 3 days in RPMI media supplemented with 10% FBS, 2 mM Glutamine, 1× Pen/Strep. Cells were transferred into 96 well plates (75000 per well), blocked for 10 mins with PBS/1% BSA, then incubated with serially diluted VH in staining buffer (PBS/1% BSA) for 1 hour at 4° C. Cells were washed with staining buffer by centrifugation then incubated with 10 μg/ml biotinylated Anti His antibody for 40 mins at 4° C. Cells were washed again then stained with Streptavidin Alexa Fluor-488 (10 μg/ml) and 1:5000 diluted Live Dead near IR stain (Molecular Probes cat no. L10119) for 30 mins at 4° C. After further washing cells were fixed and fluorescence measured by flow cytometry."}, "[9]": {"target": "T1, human PD-1 expressed on cells (CHO TREX …)", "assay": "flow cytometry, PHA-stimulated human CD4+ T cells, Donor 4", "experimental": "as §2"}, "[10]": {"target": "T1, human PD-1 expressed on cells (CHO TREX …)", "assay": "flow cytometry, PHA-stimulated human CD4+ T cells, Donor 3", "experimental": "as §2"}}, "data": [{"binder": "1.92b-4GS-1.39a (other, Biparatopic VH-linker-VH; built from its parts here because it is not clear whether 1112 is the protein or the nucleic acid) EVQLVESGGGLVKPGGSLRLSCAASGFTFSDESMTWMRQAPGKGLEWVSYISSGGGVKFYADSVKGRFTISRDNAKNSLYLQMNSLRAEDTAVYYCAREAPLRLGESPHDAFDISGQGTMVTVSSGGGGSGGGGSGGGGSGGGGSEVQLVESGGGLVQPGRSLRLSCAASGFTFDDYALHWVRQAPGKDLEWVSGISWNGGSYGYADSVKGRFTISRDNAKNSLYLQMNSLRAEDTALYYCVREKGPGLTGSTADYYGLDAWGQGTMVTVSS", "values": [{"measurement": "IC50", "setting": "[1]", "value": 1000, "unit": "pM"}, {"measurement": "IC50", "setting": "[2]", "value": 1600, "unit": "pM"}, {"measurement": "Kd", "setting": "[3]", "value": 12, "unit": "pM"}, {"measurement": "koff", "setting": "[3]", "value": "6.5e-06", "unit": "s⁻¹"}, {"measurement": "kon", "setting": "[3]", "value": 510000, "unit": "M⁻¹ s⁻¹"}, {"measurement": "IC50", "setting": "[4]", "value": 900, "unit": "pM"}, {"measurement": "EC50", "setting": "[5]", "value": 200, "unit": "pM"}, {"measurement": "IC50", "setting": "[6]", "value": 1900, "unit": "pM"}, {"measurement": "EC50", "setting": "[7]", "value": 1200, "unit": "pM"}, {"measurement": "EC50", "setting": "[8]", "value": 500, "unit": "pM"}, {"measurement": "EC50", "setting": "[9]", "value": 500, "unit": "pM"}, {"measurement": "EC50", "setting": "[10]", "value": 600, "unit": "pM"}]}, {"binder": "1.92b-4GS-1.62a (other, Biparatopic VH-linker-VH; also called 1.92-4GS-1.62a; 1.92b-4gs-2.12a) EVQLVESGGGLVKPGGSLRLSCAASGFTFSDESMTWMRQAPGKGLEWVSYISSGGGVKFYADSVKGRFTISRDNAKNSLYLQMNSLRAEDTAVYYCAREAPLRLGESPHDAFDISGQGTMVTVSSGGGGSGGGGSGGGGSGGGGSEVQLVESGGGVVRPGGSLRLSCAASGFTFDDYAMSWVRQAPGKGLEWVSGITWNAGSTGYADSVKGRFTISRDNAKNSLYLQMNSLRAEDTALYYCVRDKYSYAWSYDDFDIWGQGTMVTVSS", "values": [{"measurement": "IC50", "setting": "[1]", "value": 1100, "unit": "pM"}, {"measurement": "IC50", "setting": "[2]", "value": 1800, "unit": "pM"}, {"measurement": "Kd", "setting": "[3]", "value": 9.7, "unit": "pM"}, {"measurement": "koff", "setting": "[3]", "value": "4.3e-06", "unit": "s⁻¹"}, {"measurement": "kon", "setting": "[3]", "value": 440000, "unit": "M⁻¹ s⁻¹"}, {"measurement": "IC50", "setting": "[4]", "value": 1300, "unit": "pM"}, {"measurement": "EC50", "setting": "[5]", "value": 200, "unit": "pM"}, {"measurement": "IC50", "setting": "[6]", "value": 1600, "unit": "pM"}, {"measurement": "EC50", "setting": "[7]", "value": 1000, "unit": "pM"}, {"measurement": "EC50", "setting": "[8]", "value": 300, "unit": "pM"}, {"measurement": "EC50", "setting": "[9]", "value": 300, "unit": "pM"}, {"measurement": "EC50", "setting": "[10]", "value": 600, "unit": "pM"}]}]}
